The target in test [1] is T1, myc-DAPLE full length F1675A (human, UniProt Q9P219 1-2028).
T1 construct: Expressed in Cos7 cells; used as cell lysate; also called myc-DAPLE FA; DAPLE-FA; not shown: N-terminal myc tag of myc-pcDNA 3.1 (+)
Kind of test: GST pulldown from Cos7 lysates (FIG. 2D). An excerpt:
(§1) FIGS. 2A-2N. DAPLE binds and activates Gαi3 in vitro and in vivo via its GBA motif. (A) Prediction of molecular contacts critical for the DAPLE-Gαi interaction. Homology-based model of DAPLE's GBA motif (Red) bound to Gαi3 (green=Switch II, blue=ras-like domain, yellow, all-helical domain) with an enlarged section depicting a putative hydrophobic contact between DAPLE's F1675 and Gαi3's W211/F215. (B) Mutation of residues in the SWII region of Gαi3 disrupts DAPLE binding. Binding of His-DAPLE-CT to GST-Gαi3 WT, W211A or F215A was analyzed exactly as described in FIG. 1D. (C) Mutation of DAPLE F1675 to A abrogates Gαi3 binding. Binding of His-DAPLE-CT WT or F1675A (FA) to GST-Gαi3 was analyzed exactly as described in FIG. 1D. […] Myc-DAPLE WT or F1675A (FA) was expressed in Cos7 and binding to GST-Gαi3 analyzed exactly as described in FIG. 1E. […] Immune complexes were analyzed for DAPLE (myc) and Gαi3 (FLAG) by immunoblotting (IB). was monitored as positive Gαi3-binding control. […] The steady-state GTPase activity of His-Gαi3 alone (black) or in the presence of 2 μM His-DAPLE-CT (blue) was determined by measuring the production of [³²P]Pi at different time points as described in “Methods”. […] GTPγ³⁵S binding to His-Gαi3 at 15 min was determined in the presence of increasing concentrations (0-2 μM) of His-DAPLE-CT WT (blue) or His-DAPLE-CT FA (red).

Test [2] deals with T2, His-DAPLE-CT (aa 1650-2028) F1675A (human, UniProt Q9P219 1650-2028).
T2 construct: Recombinant, purified from E. coli; also called His-DAPLE-CT FA; DAPLE-CT FA; not shown: His tag and vector residues of pET28b
T2 sequence: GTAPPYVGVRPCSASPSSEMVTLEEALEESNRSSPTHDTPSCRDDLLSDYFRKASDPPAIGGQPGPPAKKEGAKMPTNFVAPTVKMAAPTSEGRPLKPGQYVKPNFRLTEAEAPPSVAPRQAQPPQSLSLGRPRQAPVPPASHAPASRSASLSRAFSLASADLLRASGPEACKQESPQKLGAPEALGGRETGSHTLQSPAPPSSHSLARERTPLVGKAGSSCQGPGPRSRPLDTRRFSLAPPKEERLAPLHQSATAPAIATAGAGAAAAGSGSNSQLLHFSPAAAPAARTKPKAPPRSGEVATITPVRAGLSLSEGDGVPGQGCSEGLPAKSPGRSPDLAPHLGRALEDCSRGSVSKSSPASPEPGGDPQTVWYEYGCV
The test is described as follows: GST pulldown, purified proteins (FIG. 2C).
Excerpt: as §1

B1: GST-Gαi3 preloaded with GDP (inactive) (other, rat, UniProt P08753 1-354, looked up)
chain: MGCTLSAEDKAAVERSKMIDRNLREDGEKAAKEVKLLLLGAGESGKSTIVKQMKIIHEDGYSEDECKQYKVVVYSNTIQSIIAIIRAMGRLKIDFGEAARADDARQLFVLAGSAEEGVMTSELAGVIKRLWRDGGVQACFSRSREYQLNDSASYYLNDLDRISQTNYIPTQQDVLRTRVKTTGIVETHFTFKELYFKMFDVGGQRSERKKWIHCFEGVTAIIFCVALSDYDLVLAEDEEMNRMHESMKLFDSICNNKWFTDTSIILFLNKKDLFEEKIKRSPLTICYPEYTGSNTYEEAAAYIQCQFEDLNRRKDTKEVYTHFTCATDTKNVQFVFDAVTDVIIKNNLKECGLY
notes: Immobilized on glutathione beads; Same polypeptide as m11, other nucleotide state; also called GST-Gαi3 WT; not shown: glutathione S-transferase tag of the pGEX-4T-1 vector
Regarding B1, the binding result in test [1] and in test [2] was “no binding” each time.

(Values after US20160362464A1 (University of California, published 2016).)
